Results reported in patent US20230137139A1, “BIOSYNTHESIS OF CANNABINOIDS AND C[…]” (priority 2020, published 2023).

Key:
[1] = system: CBCVA, THCVA, and CBDVA production; test: In vivo TS activity assay, Example 2 protein engineering of A. niger CBCAS, cultures fed divaric acid; assay type: cell-based, S. cerevisiae; conditions: for Mean CBCVA / Mean CBDVA / Mean THCVA: S. cerevisiae strains expressing A. niger CBCAS mutants; for Mean CBCVA / Mean CBDVA / Mean THCVA / average CBCVA titer compared with the A. niger positive control: secondary screen; for Mean CBCVA / Mean CBDVA / Mean THCVA / % CBCVA / % CBDVA / % THCVA: fed divaric acid; for % CBCVA / % CBDVA / % THCVA: share of terminal cannabinoid product profile
Experimental: (§1) An assay to detect TS activity was conducted as follows: each thawed glycerol stock of candidate CBCAS transformants was stamped into a well of YEP+4% dextrose media. Samples were incubated at 30° C. in a shaking incubator for 2 days. A portion of each of the resulting cultures was stamped into a well of YEP+4% galactose+1 mM olivetolic acid (FIG. 1 Structure 6a). Samples were incubated at 20° C. and shaken in a shaking incubator for 4 days. Every 24 hours during those 4 days, 2% galactose and 1 mM olivetolic acid were spiked into the cultures. Sodium citrate buffer adjusted to pH 5.5 was added to each well at a final concentration of 100 mM. Samples were incubated at 20° C. and shaken in a shaking incubator for 2 days. A portion of each of the resulting production cultures was stamped into a well of phosphate buffered saline (PBS). Optical measurements were taken on a plate reader, with absorbance measured at 600 nm and fluorescence at 528 nm with 485 nm excitation. Samples were incubated at 30° C. in a shaking incubator for 2 days. 100% methanol was stamped into the production cultures in half-height deepwell plates. Plates were heat sealed and frozen. Samples were then thawed for 30 min and spun down at 4° C. A portion of the supernatant was stamped into half-area 96 well plates. CBCA, THCA, and CBDA production in the samples was quantified via liquid chromatography-mass spectrometry (LC-MS).
(§2) To determine whether engineering of the A. niger CBCAS identified in Example 1 (corresponding to SEQ ID NO: 29 (with signal peptides); SEQ ID NO: 27 (without signal peptides and including an N-terminal methionine (UniProt accession No. A0A254UC34)); or SEQ ID NO: 25 (without signal peptides and without the N-terminal methionine)), could alter CBCAS substrate specificity, product specificity and/or amounts of products produced, point mutations were generated in A. niger CBCAS and the mutant versions of the protein were expressed in S. cerevisiae. A library containing 1047 A. niger CBCAS mutants was generated and screened. As in Example 1, each CBCAS mutant in the library, as well as the enzymes expressed by positive control strains, included an N-terminal MFalpha2 signal peptide (SEQ ID NO: 16) (with a methionine residue added at the N-terminus of the MFalpha2 signal peptide) and a C-terminal HDEL signal peptide (SEQ ID NO: 17).
(§3) Of the original 1047 library members, 55 strains were elevated to a secondary screen to verify CBCA production. The experimental protocol for the secondary screen was identical to the primary screen, except that additional biological replicates were included per strain, and replicate production cultures for each strain were separately fed 1 mM boluses of olivetolic acid or 1 mM boluses of divaric acid. All strains were screened in quadruplicate.

[2] = system: CBCA, THCA, and CBDA production; test: In vivo TS activity assay, Example 2 protein engineering of A. niger CBCAS, cultures fed olivetolic acid; assay type: cell-based, S. cerevisiae; conditions: for average CBCA titer compared with the A. niger positive control / Mean CBCA / Mean CBDA / Mean THCA: secondary screen; for Mean CBCA / Mean CBDA / Mean THCA: olivetolic acid (Table 8); for % CBCA / % CBDA / % THCA: share of terminal cannabinoid product profile
Experimental: as §1, §2
Production of compounds of Formulae (9), (10), and/or (11), including compounds of Formulae (9a), (10a), and/or (11a) by strains expressing the mutated versions of A. niger CBCAS was quantified and compared to the production of the same compounds by a strain expressing wild-type A. niger CBCAS, a strain expressing a C. sativa THCAS, and a strain expressing a C. sativa CBDAS. The strains were screened using the same assay described in Example 1. Production of CBCA, THCA, and/or CBDA in the samples was quantified via LC-MS.
as §3

Molecule | Mean CBCVA [1] | Mean CBDVA [1] | Mean THCVA [1] | average CBCVA titer compared with the A. niger positive control [1] | % CBCVA [1] | % CBDVA [1] | % THCVA [1] | average CBCA titer compared with the A. niger positive control [2] | Mean CBCA [2] | Mean CBDA [2] | Mean THCA [2] | % CBCA [2] | % CBDA [2] | % THCA [2]
t878464 (protein, expressed in S. cerevisiae strain) MGNTTSIAGRDCLISALGGNSALAVFPNELLWTADVHEYNLNLPVTPAAITYPETAAQIAGVVKCASDYDYKVQARSGGHSFGNYGLGGADGAVVVDMKHFTQFSMDDETYEAVIGPGTTLNDVDIELYNNGKRAMAHGVCPTIKTGGHFTIGGLGPTARQWGLALDHVEEVEVVLANSSIVTASNTQNQDVFFAVKGAAANFGIVTEFKVRTEPAPGLAVQYSYTFNLGSTAEKAQFVKDWQSFISAKNLTRQFYNNMVIFDGDIILEGLFFGSKEQYDALGLEDHFAPKNPGNILVLTDWLGMVGHALEDTILKLVGNTPTWFYAKSLGFRQDTLIPSAGIDEFFEYIANHTAGTPAWFVTLSLEGGAINDVAEDATAYAHRDVLFWVQLFMVNPVGPISDTTYEFTDGLYDVLARAVPESVGHAYLGCPDPRMEDAQQKYWRTNLPRLQELKEELDPKNTFHHPQGVMPA | 5383.16 µg/L | 0.00 µg/L | 2710.86 µg/L | higher | 66.51% | 0.00% | 33.49% | higher | 38911.71 µg/L | 9203.22 µg/L | 2062.10 µg/L | 77.55% | 18.34% | 4.11%
t865749 (protein, expressed in S. cerevisiae strain) MGNTTSIAGRDCLISALGGNSALAVFPNELLWTADVHEYNLNLPVTPAAITYPETAAQIAGVVKCASDYDIKVQARSGGHSFGNYGLGGADGAVVVDMKHFTQFSMDDETYEAVIGPGTTLNDVDIELYNNGKRAMAHGVCPTIKTGGHFTIGGLGPTARQWGLALDHVEEVEVVLANSSIVRASNTQNQDVFFAVKGAAANFGIVTEFKVRTEPAPGLAVQYSYTFNLGSTAEKAQFVKDWQSFISAKNLTRQFYNNMVIFDGDIILEGLFFGSKEQYDALGLEDHFAPKNPGNILVLTDWLGMVGHALEDTILKLVGNTPTWFYAKSLGFRQDTLIPSAGIDEFFEYIANHTAGTPAWFVTLSLEGGAINDVAEDATAYAHRDVLFWVQLFMVNPVGPISDTTYEFTDGLYDVLARAVPESVGHAYLGCPDPRMEDAQQKYWRTNLPRLQELKEELDPKNTFHHPQGVMPA | 2230.06 µg/L | 0.00 µg/L | 997.07 µg/L |  | 69.10% | 0.00% | 30.90% | higher | 37290.06 µg/L | 6071.00 µg/L | 2140.74 µg/L | 81.95% | 13.34% | 4.70%
t865689 (protein) MGNTTSIAGRDCLISALGGNSALAVFPNELLWTADVHEYNLNLPVTPAAITYPETAAQIAGVVKCASDYDYKVQARSGGHSFGNYGLGGADGAVVVDMKHFTQFSMDDETYEAVIGPGTTLGDVDRELYNNGKRAMAHGVCPTIKTGGHFTIGGLGPTARQWGLALDHVEEVEVVLANSSIVRASNTQNQDVFFAVKGAAANFGIVTEFKVRTEPAPGLAVQYSYTFNLGSTAEKAQFVKDWQSFISAKNLTRQFYNNMVIFDGDIILEGLFFGSKEQYDALGLEDHFAPKNPGNILVLTDWLGMVGHALEDTILKLVGNTPTWFYAKSLGFRQDTLIPSAGIDEFFEYIANHTAGTPAWFVTLSLEGGAINDVAEDATAYAHRDVLFWVQLFMVNPVGPISDTTYEFTDGLYDVLARAVPESVGHAYLGCPDPRMEDAQQKYWRTNLPRLQELKEELDPKNTFHHPQGVMPA | 6333.32 µg/L | 0.00 µg/L | 2791.18 µg/L | higher | 69.41% | 0.00% | 30.59% | higher | 38241.90 µg/L | 10157.65 µg/L | 2452.92 µg/L | 75.20% | 19.97% | 4.82%
t865728 (protein) MGNTTSIAGRDCLISALGGNSALAVFPNELLWTADVHEYNLNLPVTPAAITYPETAAQIAGVVKCASDYDYKVQARSGGHSFGNYGLGGADGAVVVDMKHFTQFSMDDETYEAVIGPGTTLNDVDIELYNNGKRAMAHGVCPTIKTGGHFTIGGLGPTARQWGLALDHVEEVEVVLANSSIVRASNTQNQDVFFAVKGAAANFGIVTEFKVRTEPAPGLAVQYSYTFNLGSTAEKAQFVKDWQSFISAKNLTRQFYNNMVIFDGDIILEGLFFGSKEQYDALGLEDRFAPKNPGNILVLTDWLGMVGHALEDTILKLVGNTPTWFYAKSLGFRQDTLIPSSGIDEFFEYIANHTAGTPAWFVTLSLEGGAINDVAEDATAYAHRDVLFWVQLFMVNPVGPISDTTYEFTDGLYDVLARAVPESVGHAYLGCPDPRMEDAQQKYWRTNLPRLQELKEELDPKNTFHHPQGVMPA | 3907.72 µg/L | 0.00 µg/L | 1759.32 µg/L | higher | 68.96% | 0.00% | 31.04% | higher | 36875.12 µg/L | 8996.37 µg/L | 2692.19 µg/L | 75.93% | 18.52% | 5.54%
t865690 (protein) MGNTTSIAGRDCLISALGGNSALAVFPNELLWTADVHEYNLNLPVTPAAITYPETAAQIAGVVKCASDYDYKVQARSGGHSFGNYGLGGADGAVVVDMKHFTQFSMDDETYEAVIGPGTTLADVDTELYNNGKRAMAHGVCPTIKTGGHFTIGGLGPTARQWGLALDHVEEVEVVLANSSIVRASNTQNQDVFFAVKGAAANFGIVTEFKVRTEPAPGLAVQYSYTFNLGSTAEKAQFVKDWQSFISAKNLTRQFYNNMVIFDGDIILEGLFFGSKEQYDALGLEDHFAPKNPGNILVLTDWLGMVGHALEDTILKLVGNTPTWFYAKSLGFRQDTLIPSAGIDEFFEYIANHTAGTPAWFVTLSLEGGAINDVAEDATAYAHRDVLFWVQLFMVNPVGPISDTTYEFTDGLYDVLARAVPESVGHAYLGCPDPRMEDAQQKYWRTNLPRLQELKEELDPKNTFHHPQGVMPA | 2557.72 µg/L | 0.00 µg/L | 1441.19 µg/L |  | 63.96% | 0.00% | 36.04% | higher | 38065.26 µg/L | 8288.48 µg/L | 2186.36 µg/L | 78.42% | 17.08% | 4.50%
